From patent US6376240, “RFLAT-1: a transcription factor that activates RANTES gene expression” (Board of Trustees of the Leland Stanford Junior Unversity)

B1: A probe (dsDNA)
DNA 1: AATTCGTTGCTATTTTGGAAACTCCCCTTG
DNA 2: CAAGGGGAGTTTCCAAAATAGCAACGAATT
B2: B probe (dsDNA)
DNA 1: AATTCGCTAGGGGATGCCCCTCAACTGCG
DNA 2: CGCAGTTGAGGGGCATCCCCTAGCGAATT
B3: E probe (dsDNA)
DNA 1: AATTCTTTGTGCAATTTCACTTATGATACCG
DNA 2: CGGTATCATAAGTGAAATTGCACAAAGAATT
B4: C probe (dsDNA)
DNA 1: AATTCTCTAGATGAGAGAGCAGTGAGGGAGAGACG
DNA 2: CGTCTCTCCCTCACTGCTCTCTCATCTAGAGAATT
B5: kB probe (dsDNA)
DNA 1: AATTCGTCAGAGGGGACTTTCCGAGAG
DNA 2: CTCTCGGAAAGTCCCCTCTGACGAATT
B6: A/B probe (dsDNA)
DNA 1: AATTCGCTATTTTGGAAACTCCCCTTAGGGGATGCCCCTCAACTGCG
DNA 2: CGCAGTTGAGGGGCATCCCCTAAGGGGAGTTTCCAAAATAGCGAATT

These binders were tested against T1, RFLAT-1 C-terminal portion (aa 59-288) (homo sapien, UniProt Q9Y2Y9 SEQ:59-288) (assay: EMSA). Conditions: tags: His6 (pET-28a); label: 32P.
Protocol: (§1) The wells were incubated in blocking buffer (5% goat serum, 5% horse serum, 0.1% Triton X-100 in PBS), washed in PBS supplemented with 0.1% Triton X-100, and incubated with antigen purified rabbit polyclonal anti-RFLAT-1 (1:500 [v/v]) or rabbit IgG (1:500 [v/v]) (Santa Cruz Biotechnology, Santa Cruz, Calif.). The wells were washed, incubated with goat anti-rabbit FITC (1:2000 [v/v]) (Caltag, Burlingame, Calif.), and anti-FITC Alexa™ 488 (1:2000 [v/v]) (Molecular Probes, Eugene, Oreg.). Finally, the slide was washed with PBS, covered with mounting media (1:3 [v/v], Vectashield with propidium iodide) (Vector, Burlingame, Calif.), cover slipped and sealed. EMSA and supershift assays were performed essentially as described by Ortiz et al., 1996, supra. Oligonucleotides were synthesized by Life Technologies, Inc. (Gaithersburg, Md.) and purified by a polyacrylamide-urea gel. Oligonucleotides were end-labeled using [γ-^32P] ATP and T4 polynucleotide kinase. The following oligonucleotides were used:
(§2) A carboxyl terminal portion of RFLAT-1, including the zinc finger DNA binding domain (nucleotides 550–1430), was isolated through expression cloning using an oligonucleotide probe containing three tandem A sites of the RANTES promoter.

T1 sequence (Q9Y2Y9 other isoform, or with tags, fused parts or gaps): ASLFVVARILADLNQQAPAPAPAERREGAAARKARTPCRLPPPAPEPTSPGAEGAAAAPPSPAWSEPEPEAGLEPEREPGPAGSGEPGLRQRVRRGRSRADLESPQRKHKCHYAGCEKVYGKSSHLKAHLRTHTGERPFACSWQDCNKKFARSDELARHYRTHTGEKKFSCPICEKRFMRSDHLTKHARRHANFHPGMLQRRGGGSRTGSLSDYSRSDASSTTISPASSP

Row | Binder | binding result
1 | B1 | binds
2 | B2 | no binding
3 | B3 | no binding
4 | B4 | no binding
5 | B5 | no binding

These binders were tested against T1, RFLAT-1 C-terminal portion (aa 59-288) (assay: EMSA; two retarded bands, possible oligomerization). Conditions: tags: His6 (pET-28a); label: 32P.
Protocol: as §1, §2

Row | Binder | binding result
6 | B6 | binds
